{"source": "patent US20070036810A1", "about": "“Cyclic amp response element activator proteins and uses related thereto” (priority 2003, published 2007)", "assay_type_in_all_cases": "cell-based", "key": {"[1]": {"test_system": "GAL4 DNA binding sites (UAS-Luc, pFR-Luc reporter)", "experiment": "GAL4 DNA binding domain fusion transactivation assay (pFR-Luc) in HEK 293 cells", "details": "normalized to pCMV-BD vector", "source_text": "To determine if CREAP proteins can act as a transcription activators, various regions of all 3 CREAP homologs (amino acids 300-650 of CREAP1, amino acids 296-694 of CREAP2 and amino acids 335-635 of CREAP3) were expressed as fusion proteins with the DNA binding domain of GAL4 and tested for the ability to activate expression of a reporter gene linked to GAL4 protein binding sequences (UAS-Luc (pFR-Luc reporter). Briefly, the indicated regions of CREAP1, CREAP2 and CREAP3 were amplified by PCR and subcloned in frame into pCMV-BD vector (Stratagene) encoding GAL4 DNA binding domain. Selected plasmids and empty vector (pCMV-SPORT6) were transfected into HEK 293 cells at 75 ng/well using Fugene6 transfection reagent (Roche) as described above. pFR-Luc reporter (Stratagene) encoding firefly luciferase gene driven by minimal promoter linked to 5 concatamerized GAL4 binding sites (UAS) was co-transfected at 100 ng/well. As a positive control, the reporter was also co-transfected with a plasmid encoding GAL4-CREB fusion protein (Stratagene) alone or in the presence of pFC-PKA an expression construct encoding catalytic subunit of protein kinase A (Stratagene) to activate the CREB kinase inducible activation domain. Fold induction was compared to the reporter's activity measured in the cells transfected with pCMV-BD an expression vector carrying GAL4 DNA binding domain only. […]"}, "[2]": {"test_system": "GAL4-CREB fusion protein", "experiment": "GAL4-CREB activation assay in HLR cell line", "details": "HLR cell line with integrated pFR-Luc reporter, normalized to pCMV-BD vector", "method": "To determine if CREAP proteins can directly activate CREB1 protein, the expression constructs of CREAP1, CREAP2 and CREAP3 were transfected individually or with GAL4-CREB plasmid (Stratagene) into HLR cell line (Stratagene) carrying genomic DNA integrated copies of pFR-Luc reporter. Briefly, HLR cells were maintained per manufacturer's instructions. Selected plasmids and either empty vector (pCMV-BD) or GAL4-CREB plasmid were transfected at 75 ng/well using Fugene6 transfection reagent (Roche) as described above. As a positive control pFC-PKA an expression construct encoding catalytic subunit of protein kinase A (Stratagene) was also co-trasfected with GAL4-CREB. Fold of activation was compared to the reporter's activity measured in the cells transfected with empty vector.\nThe ability of full length CREAP1, CREAP2 and CREAP3 to induce the activity of GAL4-CREB fusion protein (Stratagene) was tested. The data presented are normalized to the value seen with pCMV-BD vector. […] Note the fold induction obtained with positive control is lower when compared to the data from Table 6 when all the plasmids including the reporter were transiently transfected."}, "[3]": {"test_system": "human IL-8 promoter", "experiment": "pGL2-IL-8p-Luc reporter inducibility in HEK 293 cells", "details": "HEK 293 cells treated with 50 ng/ml for 16 hours", "method": "A luciferase reporter controlled by a 1.5 kB IL-8 promoter containing fragment of human IL-8 promoter was tested for inducibility by known regulators of cytokine-mediated gene expression. pNF-κB-Luc (BD Biosciences) and pGL2-IL-8p-Luc reporters were co-transfected into HEK 293 cells with expression constructs encoding known activators of the NF-κB pathway, truncated MEKK (AA 360-672) (Stratagene) and a full length TRAF6 cDNA made according to conventional methods using a proprietary clone collection. Cells co-transfected with empty pCMV-Sport6 vector were either left untreated or treated with TNFα (50 ng/ml, for 16 hours). Luciferase activity was measured 48 hours post transfection. The pNF-κB-Luc reporter was used as a positive control."}, "[4]": {"test_system": "secreted IL-8 protein from HeLa cells", "experiment": "IL-8 Elisa assay in HeLa cells", "details": "after transfection", "method": "HeLa cells are transfected with DNA samples selected from the group of sequence verified and confirmed hits at 100 ng per well in 96 well plates (Costar) using the protocol described above. DNA samples designated as co-activators are co-transfected at 25 ng per well. Empty vector pCMV-Sport6 is used as a negative control. 72 hours post-transfection IL-8 content is measured in the cell growth media in prediluted aliquots corresponding to 1 to 5 μl of conditioned growth media using an IL-8 Elisa kit (Sigma) following the provided protocol. As a positive control, growth media is collected from the cells transfected with empty vector and treated with IL-1β and TNFα (R&D Systems) at 5 ng/ml and 50 ng/ml respectively for 16 hours prior to collection of the growth media for the IL-8 assay."}}, "data": [{"substance": "GAL4-CREB: plasmid encoding GAL4-CREB fusion protein (Stratagene) [reference compound]", "values": [{"measurement": "Fold Induction", "setting": "[1]", "value": 7.66}, {"measurement": "Fold Induction", "setting": "[2]", "value": 75.55}]}, {"substance": "TNFα [reference compound]", "values": [{"measurement": "increase of IL-8 promoter-reporter activity", "setting": "[3]", "value": 4.7, "unit": "times"}]}, {"substance": "relA: subunit of NF-κB transcription factor, expression construct [reference compound]", "values": [{"measurement": "accumulation of secreted IL-8 protein", "setting": "[4]", "value": "induced small increases"}]}]}
